The results in this text go back to patent publication US20220249633A1.

In the experiment the target is HLA-A*24 (human). As to the kind of experiment: UV-exchange ELISA, exchange yield grade.
NYGVLHVTF [… (SEQ ID NO: 359)] gave a peptide exchange yield of more than 75%. The molecule KYGNFIDKL [… (SEQ ID NO: 350)] had a peptide exchange yield of 50 to 75%. As to LYQDHMQYI [… (SEQ ID NO: 367)], the peptide exchange yield fell in the range of 20 to 49%.

As to KYSDVKNLI [… (SEQ ID NO: 319)], the peptide exchange yield is more than 75%. In turn, VYFEGSDFKF [… (SEQ ID NO: 316)] showed a peptide exchange yield of 50 to 75%.

In turn, VFSPDGHLF [… (SEQ ID NO: 360)] displayed a peptide exchange yield of 50 to 75%. Under EYNSDLHQFF [… (SEQ ID NO: 345)] stands 50 to 75%. VYIAELEKI [… (SEQ ID NO: 378)]: the peptide exchange yield is 50 to 75%.

As for QYSIISNVF [… (SEQ ID NO: 349)], the peptide exchange yield fell in the range of 50 to 75%. The molecule QFITSTNTF [… (SEQ ID NO: 357)] returned a peptide exchange yield of more than 75%. For the molecule TYSNSAFQYF [… (SEQ ID NO: 318)], the peptide exchange yield was 50 to 75%. TYADIGGLDNQI [… (SEQ ID NO: 361)] yielded a peptide exchange yield of 50 to 75%. RFIGIPNQF [… (SEQ ID NO: 370)] displayed a peptide exchange yield of 50 to 75%. KYLNENQLSQL [… (SEQ ID NO: 364)]: the peptide exchange yield lay within 50 to 75%. For the molecule RYKPGEPITF [… (SEQ ID NO: 383)], the peptide exchange yield fell in the range of 50 to 75%. IFHEVPLKF [… (SEQ ID NO: 351)]: the peptide exchange yield lay within 50 to 75%.

In turn, VYNEQIRDLL [… (SEQ ID NO: 354)] showed a peptide exchange yield of 50 to 75%. The molecule VYTPVASRQSL [… (SEQ ID NO: 376)] came in with a peptide exchange yield of 50 to 75%. VYAEVNSL [VYAEVNSL (SEQ ID NO: 347)] had a peptide exchange yield of 50 to 75%. As for KYTEKLEEI [… (SEQ ID NO: 387)], the peptide exchange yield was 50 to 75%. As to TYGKIDLGF [… (SEQ ID NO: 353)], the peptide exchange yield was 50 to 75%. Consider VFIDHPVHL [… (SEQ ID NO: 365)], for which the peptide exchange yield is more than 75%. NYLGGTSTI [… (SEQ ID NO: 343)]: the peptide exchange yield was 50 to 75%.

In the case of KYQNVKHNL [… (SEQ ID NO: 368)], the peptide exchange yield fell in the range of 50 to 75%. Consider VFIAQGYTL [… (SEQ ID NO: 379)], for which the peptide exchange yield was more than 75%. The molecule KYPASSSVF [… (SEQ ID NO: 381)] had a peptide exchange yield of 50 to 75%. SYAELGTTI [… (SEQ ID NO: 363)] came in with a peptide exchange yield of 20 to 49%. Under QYTPHSHQF [… (SEQ ID NO: 377)] stands 50 to 75%; under NYMPGQLTI [… (SEQ ID NO: 356)], more than 75%. With IYVTGGHLF [… (SEQ ID NO: 355)], the peptide exchange yield was 50 to 75%. In the case of AYLPPLQQVF [… (SEQ ID NO: 382)], the peptide exchange yield was in the range of 50 to 75%. KYTDYILKI [… (SEQ ID NO: 375)] showed a peptide exchange yield of 50 to 75%. The result for IYLEHTESI [… (SEQ ID NO: 348)] reads 50 to 75%; that for NYAFLHRTL [… (SEQ ID NO: 342)], 50 to 75%. The result for GYISNGELF [… (SEQ ID NO: 373)] reads 50 to 75%; that for VFLPRVTEL [… (SEQ ID NO: 374)], 20 to 49%; that for RYFDVGLHNF [… (SEQ ID NO: 384)], 50 to 75%. Molecule AYSHLRYVF [… (SEQ ID NO: 371)] returned a peptide exchange yield of 20 to 49%. QYLELAHSL [… (SEQ ID NO: 366)] yielded a peptide exchange yield of 50 to 75%. For VYTHEVVTL [… (SEQ ID NO: 369)], the peptide exchange yield was 50 to 75%. Turning to VFDTSIAQLF [… (SEQ ID NO: 317)], the peptide exchange yield fell in the range of 50 to 75%. Under VYTGIDHHW [… (SEQ ID NO: 380)] stands more than 75%; under QYIEELQKF [… (SEQ ID NO: 385)], 50 to 75%. On to SYLTQHQRI [… (SEQ ID NO: 341)], for which the peptide exchange yield was in the range of 50 to 75%. In the case of TFSDVEAHF [… (SEQ ID NO: 386)], the peptide exchange yield fell in the range of 50 to 75%. Under IYGEKTYAF [… (SEQ ID NO: 388)] stands 50 to 75%. Consider FYIPHVPVSF [… (SEQ ID NO: 315)], for which the peptide exchange yield fell in the range of 50 to 75%. Under QYGGDLTNTF [… (SEQ ID NO: 352)] stands 50 to 75%. The molecule YYSEVPVKL [… (SEQ ID NO: 358)] gave a peptide exchange yield of 50 to 75%. EYNSDLHQF [… (SEQ ID NO: 344)] displayed a peptide exchange yield of 50 to 75%. Take VYNYAEQTL [… (SEQ ID NO: 362)]: the peptide exchange yield was 20 to 49%. Regarding VYVIEPHSMEF [… (SEQ ID NO: 372)], the peptide exchange yield was 50 to 75%.
